According to patent US20200385482A1:

Experiments:
[1] = target: human C-type lectin domain family 2 member (hCLEC2D) expressed on transfected 300.19 cells (human) (UniProt Q9UHP7); test: FACS, hCLEC2D 300.19 cells, assay 1, Ab 1 ug/ml
[2] = target: human C-type lectin domain family 2 member (hCLEC2D) expressed on transfected 300.19 cells (human) (UniProt Q9UHP7); test: FACS, hCLEC2D 300.19 cells, assay 2, Ab 1 ug/ml
[3] = target: human C-type lectin domain family 2 member (hCLEC2D) expressed on transfected 300.19 cells (human) (UniProt Q9UHP7); test: FACS, hCLEC2D 300.19 cells, assay 1, Ab 0.1 ug/ml
[4] = target: human C-type lectin domain family 2 member (hCLEC2D) expressed on transfected 300.19 cells (human) (UniProt Q9UHP7); test: FACS, hCLEC2D 300.19 cells, assay 2, Ab 0.1 ug/ml
[5] = target: human C-type lectin domain family 2 member (hCLEC2D) expressed on transfected 300.19 cells (human) (UniProt Q9UHP7); test: FACS, hCLEC2D 300.19 cells, assay 1, Ab 0.01 ug/ml
[6] = target: human C-type lectin domain family 2 member (hCLEC2D) expressed on transfected 300.19 cells (human) (UniProt Q9UHP7); test: FACS, hCLEC2D 300.19 cells, assay 2, Ab 0.01 ug/ml
[7] = target: human C-type lectin domain family 2 member (hCLEC2D) expressed on transfected 300.19 cells (human) (UniProt Q9UHP7); test: FACS, hCLEC2D 300.19 cells, assay 1, Ab approx 10 ug/ml
[8] = target: human C-type lectin domain family 2 member (hCLEC2D) expressed on transfected 300.19 cells (human) (UniProt Q9UHP7); test: FACS, hCLEC2D 300.19 cells, assay 2, Ab approx 10 ug/ml

Chain of human C-type lectin domain family 2 member (hCLEC2D) expressed on transfected 300.19 cells (human) (Q9UHP7 whole entry, the tested form may be a part): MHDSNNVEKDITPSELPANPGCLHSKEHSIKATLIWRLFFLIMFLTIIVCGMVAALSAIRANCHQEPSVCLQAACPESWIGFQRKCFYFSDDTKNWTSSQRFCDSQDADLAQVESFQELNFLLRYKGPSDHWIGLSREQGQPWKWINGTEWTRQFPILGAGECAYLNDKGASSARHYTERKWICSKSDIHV

Cells PE-A Mean [1]: 351 MFI | Cells PE-A Mean [2]: 351 MFI | Cells PE-A Mean [3]: 175 MFI | Cells PE-A Mean [4]: 175 MFI | Cells PE-A Mean [5]: 146 MFI | Cells PE-A Mean [6]: 146 MFI | Cells PE-A Mean [7]: 1540 MFI | Cells PE-A Mean [8]: 1540 MFI
Substance: control hIgG (antibody)
